Measurements: patent US20160052997A1 (CELLTRION, published 2016)
Changes are numbered by the printed parent chain. “And” between values parts separate entries of the source, which are not always exact repeats. Identical values can stand only once. Like-named read-outs stand apart in the source and are kept apart here.

B1: CT104 (antibody, V domains shown)
VH: QVQLVQSGAEVKKPGSSVKVSCKASGGTLNNYAISWVRQAPGQGLEWMGGISPIFGTLNYAERFQGRVTITADVFTNTVYMELSSLRSEDTAVYFCARGCGYNCYYFDGWGQGTLVTVSS
VL: EIVLTQSPGTLSLSPGERATLSCRASQSLSSSSLVWYQQKPGQAPRLLIYGASSRATGIPDRFSGSGSGTDFTLTISRLEPEDFAVYYCQQYGNSPYTFGQGTQVEIKR
B2: CT123 (antibody, V domains shown)
VH: QVQLVESGGGVVQPGRSLRLSCAASGFTFSRFGIHWVRQAPGKGLEWMAVIWYDGSNKFYADSVKGRFTISRDNSKNTVYLQMNSLRAEDTAVYYCAKDSRGYCSSIICFEGGLDNWGQGTLVTVSS
VL: B1 VL with I2T, L29V, S31I, S33Y, V35A, Q39R, S54R, N94S, Q104K, V105L
B3: CT149 (antibody, V domains shown)
VH: QVQLVQSGAEVKKPGASVKVSCKTSGYSFSTYGVSWVRQAPGQGPEWVGWISAYTGITDYAQKFQGRVTLTTDATTATAFLDLRSLRPDDTATYFCARDKVQGRVEVGSGGRHDYWGQGTLVIVSS
VL: EVVLTQSPGTLALPPGERATLSCRASHRVGSTYIAWYQQKSGQAPRRLIYGASNRATDIPDRFSGSGSGTDFTLTIRRLEPEDSAVYYCQQFSVSPWTFGQGTRVEIKR
B4: CT120 (antibody, V domains shown)
VH: QVQLVQSGAEVKMPGSSVKVSCKTSGVFFSSHAISWVRQAPGQGLEWMGGISPMFGTTHYAQKFQGRVTITADQSTTTAYMELTSLTSEDTAVYYCARDGAGSYYPLNWFDPWGQGTLVTVSS
VL: EIVLTQSPATLSLSPGERATLSCRASENIWNNLAWYQQKPGQAPRLLISGASTGATGVPSRFRGSGSRTEFTLTISSLQSEDFAIYFCQQYNSWPRTFGPGTKVEIKR

How the values were obtained:
[1] = molecular target: T1, HA of A/Solomon Islands/2006 (H1N1) virus (Influenza A virus A/Solomon …); assay: cell-based or functional assay
[2] = molecular target: T2, HA of A/New York/18/2009 (H1N1) virus (Influenza A virus A/New York/18/2009 …); assay: cell-based or functional assay
[3] = molecular target: T3, HA of A/Texas/05/2009 (H1N1) virus (Influenza A virus A/Texas/05/2009 (H1N1)); assay: cell-based or functional assay
[4] = molecular target: T4, HA of A/Ohio/83 (H1N1) virus (Influenza A virus A/Ohio/83 (H1N1)); assay: cell-based or functional assay
[5] = molecular target: T5, purified recombinant HA protein of H1N1 (A/Solomon Island/03/06) (Influenza A virus A/Solomon …)
[6] = molecular target: T5, purified recombinant HA protein of H1N1 …; assay: SPR, Biacore T200, HA captured via anti-6x his tag antibody, 25 C
[7] = molecular target: HA of A/Perth/16/09 (H3N2) virus (Influenza A virus A/Perth/16/09 (H3N2)); assay: cell-based or functional assay
[8] = molecular target: HA of A/Anhui/1/2013 (H7N9) virus (Influenza A virus A/Anhui/1/2013 (H7N9)); assay: cell-based or functional assay
[9] = molecular target: T6, HA of A/ck/HK/G9/97 (H9N2) virus (Influenza A virus A/ck/HK/G9/97 (H9N2)); assay: cell-based or functional assay
[10] = molecular target: HA of A/Shanghai/2/2013 (H7N9) virus (Influenza A virus A/Shanghai/2/2013 …); assay: cell-based or functional assay
[11] = molecular target: HA of A/Beijing/32/92-R-H3N2 PR8 virus (Influenza A virus A/Beijing/32/92 (H3N2)); assay: cell-based or functional assay
[12] = molecular target: T7, HA of Anhui/1/05 (H5N1) virus (Influenza A virus A/Anhui/1/05 (H5N1)); assay: cell-based or functional assay
[13] = molecular target: HA of A/Sydney/5/97 (H3N2) virus (Influenza A virus A/Sydney/5/97 (H3N2)); assay: cell-based or functional assay
[14] = molecular target: T6, HA of A/ck/HK/G9/97 (H9N2) virus; assay: cell-based or functional assay; remark: listed apart in the source
[15] = molecular target: T1, HA of A/Solomon Islands/2006 (H1N1) …; assay: cell-based or functional assay; remark: listed apart in the source
[16] = molecular target: T8, HA of A/Ann Arbor/6/60 ca (H2N2) virus (Influenza A virus A/Ann Arbor/6/60 ca …); assay: cell-based or functional assay
[17] = molecular target: T2, HA of A/New York/18/2009 (H1N1) virus; assay: cell-based or functional assay; remark: listed apart in the source
[18] = molecular target: T9, HA of A/Brisbane/10/07 (H3N2) virus (Influenza A virus A/Brisbane/10/07 …); assay: cell-based or functional assay
[19] = molecular target: HA of A/Green-winged teal/209/TX/2009 (H9N2) virus (Influenza A virus A/Green-winged …); assay: cell-based or functional assay
[20] = molecular target: HA of A/turkeyNirginia/02 (H7N2) virus (Influenza A virus A/turkey/Virginia/02 …); assay: cell-based or functional assay
[21] = molecular target: T3, HA of A/Texas/05/2009 (H1N1) virus; assay: cell-based or functional assay; remark: listed apart in the source
[22] = molecular target: T7, HA of Anhui/1/05 (H5N1) virus; assay: cell-based or functional assay; remark: listed apart in the source
[23] = molecular target: T10, HA of A/Ohio/07/2009 (H1N1) virus (Influenza A virus A/Ohio/07/2009 (H1N1)); assay: cell-based or functional assay
[24] = molecular target: T4, HA of A/Ohio/83 (H1N1) virus; assay: cell-based or functional assay; remark: listed apart in the source
[25] = molecular target: T11, HA of A/Hong Kong/68 (H3N2) virus (Influenza A virus A/Hong Kong/68 (H3N2)); assay: cell-based or functional assay
[26] = molecular target: T12, HA of A/Wisconsin/67/05 (H3N2) virus (Influenza A virus A/Wisconsin/67/05 …); assay: cell-based or functional assay
[27] = molecular target: T9, HA of A/Brisbane/10/07 (H3N2) virus; assay: cell-based or functional assay; remark: listed apart in the source
[28] = molecular target: T11, HA of A/Hong Kong/68 (H3N2) virus; assay: cell-based or functional assay; remark: listed apart in the source
[29] = molecular target: T12, HA of A/Wisconsin/67/05 (H3N2) virus; assay: cell-based or functional assay; remark: listed apart in the source
[30] = molecular target: HA of A/PuertoRico/8/34 (H1N1) virus (Influenza A virus A/PuertoRico/8/34 …, UniProt P03452 18-565); assay: cell-based or functional assay
[31] = molecular target: T1, HA of A/Solomon Islands/2006 (H1N1) …; assay: cell-based or functional assay; remark: listed apart in the source
[32] = molecular target: T8, HA of A/Ann Arbor/6/60 ca (H2N2) virus; assay: cell-based or functional assay; remark: listed apart in the source
[33] = molecular target: T3, HA of A/Texas/05/2009 (H1N1) virus; assay: cell-based or functional assay; remark: listed apart in the source
[34] = molecular target: T10, HA of A/Ohio/07/2009 (H1N1) virus; assay: cell-based or functional assay; remark: listed apart in the source
[35] = molecular target: T4, HA of A/Ohio/83 (H1N1) virus; assay: cell-based or functional assay; remark: listed apart in the source

Row | Binder | MN test: lowest antibody concentration at which no virus antigen was detected [1] | MN test: lowest antibody concentration at which no virus antigen was detected [2] | MN test: lowest antibody concentration at which no virus antigen was detected [3] | MN test: lowest antibody concentration at which no virus antigen was detected [4] | Kd [5] | Kd [6] | koff [6] | kon [6] | EC50, microneutralization test [9] | EC50, microneutralization test [12] | MN test: lowest antibody concentration at which no virus antigen was detected [14] | MN test: lowest antibody concentration at which no virus antigen was detected [15] | MN test: lowest antibody concentration at which no virus antigen was detected [16] | MN test: lowest antibody concentration at which no virus antigen was detected [17] | MN test: lowest antibody concentration at which no virus antigen was detected [18] | MN test: lowest antibody concentration at which no virus antigen was detected [19] | MN test: lowest antibody concentration at which no virus antigen was detected [20] | MN test: lowest antibody concentration at which no virus antigen was detected [21] | MN test: lowest antibody concentration at which no virus antigen was detected [22] | MN test: lowest antibody concentration at which no virus antigen was detected [23] | further results
1 | B1 | 0.625 µg/mL | 0.625 µg/mL | 0.313 µg/mL | 0.313 µg/mL |  |  |  |  |  |  |  |  |  |  |  |  |  |  |  |  | 
2 | B2 | 1.25 µg/mL | 0.625 µg/mL | 0.313 µg/mL | 0.313 µg/mL |  |  |  |  |  |  |  |  |  |  |  |  |  |  |  |  | 
3 | B3 |  |  |  |  | 345 nM | 368 nM and 323 nM | 0.0904 s⁻¹ and 0.105 s⁻¹ | 246000 M⁻¹ s⁻¹ and 324000 M⁻¹ s⁻¹ | 7.39 µg/mL | 11 µg/mL | 0.312 µg/mL | > 10 µg/mL | > 10 µg/mL | > 10 µg/mL | 1.25 µg/mL | 0.156 µg/mL | 10 µg/mL | > 10 µg/mL | 0.625 µg/mL | 5 µg/mL | EC50, microneutralization test [7]: 2.06 µg/mL; EC50, microneutralization test (Contract Lab A) [8]: 0.9 µg/mL; EC50, microneutralization test (Contract Lab A) [10]: 1.17 µg/mL; EC50, microneutralization test (Contract Lab B) [10]: 7.71 µg/mL; EC50, microneutralization test [11]: 1.36 µg/mL; EC50, microneutralization test [13]: 2.93 µg/mL; MN test: lowest antibody concentration at which no virus antigen was detected [24]: > 10 µg/mL; MN test: lowest antibody concentration at which no virus antigen was detected [25]: 2.5 µg/mL; MN test: lowest antibody concentration at which no virus antigen was detected [26]: 1.25 µg/mL; MN test: lowest antibody concentration at which no virus antigen was detected [27]: 1.25 µg/mL; MN test: lowest antibody concentration at which no virus antigen was detected [28]: 2.5 µg/mL; MN test: lowest antibody concentration at which no virus antigen was detected [29]: 1.25 µg/mL
4 | B4 | 0.625 µg/mL | 0.313 µg/mL | 0.313 µg/mL | 0.156 µg/mL | 2.82 nM | 2.79 nM and 2.85 nM | 0.000684 s⁻¹ and 0.000703 s⁻¹ | 245000 M⁻¹ s⁻¹ and 246000 M⁻¹ s⁻¹ | 3.12 µg/mL | 6.92 µg/mL | 0.078 µg/mL | 0.625 µg/mL | 0.312 µg/mL | 0.313 µg/mL | > 20 µg/mL | 0.625 µg/mL | > 20 µg/mL | 0.156 µg/mL | 0.625 µg/mL | 0.039 µg/mL | EC50, microneutralization test [30]: 0.33 µg/mL; EC50, microneutralization test [31]: 0.25 µg/mL; EC50, microneutralization test [32]: 6.53 µg/mL; EC50, microneutralization test [33]: 1.19 µg/mL; EC50, microneutralization test [34]: 0.14 µg/mL; EC50, microneutralization test [35]: 0.26 µg/mL; MN test: lowest antibody concentration at which no virus antigen was detected [24]: 0.156 µg/mL; MN test: lowest antibody concentration at which no virus antigen was detected [26]: > 10 µg/mL
